Several values for one entry are separate records, joined by “and”; a condition that tells them apart may be missing. Identical values can stand only once.
Legend:
[1] = system: CD22 positive Raji and Ramos cells; test: FACS analysis with <CD22>-<DIG> and DIG-Cy5; assay type: cell-based; details: 5 μg/ml <CD22>-<DIG>, DIG-Cy5 66.4 nM
Experimental: For these analyses we used CD22 positive Raji and Ramos cells and the bispecific <CD22>-<DIG> antibody. 3×10^5 cells per well of a 96-well-plate were incubated with 5 μg/ml of the <CD22>-<DIG> antibody in FACS buffer (PBS containing 5% FCS). After washing the cells were incubated with DIG-Cy5 in a final concentration of 66.4 nM. After another washing step cells were analysed with the FACS canto II (BD Biosciences).

[2] = system: IGF1R expressing H322M tumor xenografts; test: Near Infrared Fluorescence Imaging (NIRF) in vivo, H322M xenografts; parameters: species or system mice; details: not complexed with antibody; some accumulation in the liver
Experimental: To analyze if the specific antigen binding functionality of the antibody-complexes can be utilized to specifically deliver imaging reagents to tumor cells, we performed Near Infrared Fluorescence Imaging Studies (NIRF) in vivo. […] These xenografts were either expressing the antigen Her2 (KPL4 cells) or the antigen IGF1R (H322M cells). Subsequently NIRF imaging was performed by using the Maestro system from CRI. Animals were placed in a measuring chamber and the fluorescence was measured over a defined spectral wavelength array, depending on the dye. Spectral information of each pixel of the obtained image was analyzed by a special software which allows to separate different pre-defined spectra, e.g. autofluorescence and the signal of the dye. Theses separated specific signals were quantified by the Maestro software in order to compare different samples.
To analyze whether the <Her2>-<Dig>-Dig-siRNA complexes, and <IGF1R>-<Dig>-Dig-siRNA complexes mediate specific targeting of their payload towards antigen expressing cells not only in cell culture experiments but also in live animals, we made use of the fact that siRNAs can simultaneously be labeled with Dig as well as with fluorescence labels. […] The technology that we've applied for this task is Near Infrared Fluorescence Imaging (NIRF) in vivo. […]

[3] = Excitation and emission spectra of Cy5, Dig-Cy5 and complex; assay type: physicochemical
Description: To evaluate whether digoxygenation of Cy5 alters its fluorescence features, we compared the excitation and emission spectra of Cy5 and compared it with the spectra of the newly generated Dig-Cy5 and with Dig-Cy5 within a complex with bispecific antibodies. […] We conclude that Dig-Cy5 and -complexes can be applied for antibody-mediated targeting and in vivo imaging.

H322M cells = test: CellTiter Glo Luminescent Cell Viability Assay, doxorubicin; assay type: cell-based; details: Homo sapiens, NCI-H322M, 48 hours
Experimental: (§1) Then, cell viability was assessed by applying the CellTiter Glo Luminescent Cell Viability Assay (Promega, Madison, Wis.).

KPL-4 cells = test: as above; assay type: cell-based; details: Homo sapiens, KPL4, 48 hours
Experimental: as §1

MDA-MB-468 cells = test: as above; assay type: cell-based; details: Homo sapiens, 48 hours
Experimental: as §1
These experiments included an additional breast tumor cell line MDA-MB-468. […] Thereafter, cell viability was assessed by applying the CellTiter Glo Luminescent Cell Viability Assay (Promega, Madison, Wis.).

[4] = SPR (BiaCore) of sequence-optimized anti-Dig modules; assay type: binding; details: FIG. 46 c, d, read-out: KD of anti-Dig module
Description: Further optimization of the humanized VH and VL sequences of the anti-digoxygenin antibody was applied to generate modules with even higher affinity towards digoxygenin. Based upon the experimentally determined as well as in-silico calculated predicted structures (see above, based upon structure modeling without experimental structure determination), we identified three positions in which alterations might affect affinity. These were located at (Kabat positions) Ser49, Ile57 and Ala60 of the VH domain (FIG. 46). Replacement of the amino acid VHSer49 with Ala, VHIle57 with Ala and of VHAla60 with Pro generated antibody derivatives with sequences that are listed as SEQ ID NO 36 and SEQ ID NO 37. […] The relevance of these positions was thereafter confirmed by inspecting the experimentally determined structure of the dig-binding variable region. The digoxygenin binding module with improved affinity can be applied as hapten-binding entity for various bi- and multispecific antibody derivatives.
For that, binding properties of the recombinant <Dig> derivatives were analyzed by surface plasmon resonance (SPR) technology using a Biacore T100 or Biacore 3000 instrument (GE Healthcare Bio-Sciences AB, Uppsala). This system is well established for the study of molecule interactions. […]

Eg5-siRNA-(2×)DIG = test: SPR (Biacore) binding to bi-digoxygenated siRNA; details: 25° C., read-out: KD, binding of siRNA-(2x)DIG
Experimental: (§2) For that, binding properties of the recombinant <Dig> derivatives were analyzed by surface plasmon resonance (SPR) technology using a Biacore T100 or Biacore 3000 instrument (GE Healthcare Bio-Sciences AB, Uppsala). […] To perform the binding studies capturing anti-human IgG antibody was immobilized on the surface of a CM5 biosensor chip using amine-coupling chemistry. Flow cells were activated with a 1:1 mixture of 0.1 M N-hydroxysuccinimide and 0.1 M 3-(N,N-dimethylamino)propyl-N-ethylcarbodiimide at a flow rate of 5 μl/min. […] A reference control flow cell was treated in the same way but with vehicle buffers only instead of the capturing antibody. Surfaces were blocked with an injection of 1 M ethanolamine/HCl pH 8.5. […]
(§3) Anti-mouse IgG antibody was immobilized on the surface of a CM5 biosensor chip in the same fashion as described above. […] The samples to be analyzed were diluted in HBS-P (10 mM HEPES, pH 7.4, 150 mM NaCl, 0.005% Surfactant P20) and injected at a flow rate of 5 μl/min. […] Signals were detected at a rate of one signal per second.
(§4) The samples to be analyzed were diluted in HBS-P and injected at a flow rate of 5 μl/min. […]

DIG-siRNA2349 = test: SPR binding to DIG-siRNA2349; details: analyte DIG-siRNA2349; replicate lines; listed as <DIG>hu2
Experimental: For that, binding properties of the recombinant <Dig> derivatives were analyzed by surface plasmon resonance (SPR) technology using a Biacore T100 or Biacore 3000 instrument (GE Healthcare Bio-Sciences AB, Uppsala). This system is well established for the study of molecule interactions. It allows a continuous real-time monitoring of ligand/analyte bindings and thus the determination of association rate constants (ka), dissociation rate constants (kd), and equilibrium constants (KD) in various assay settings. SPR-technology is based on the measurement of the refractive index close to the surface of a gold coated biosensor chip. Changes in the refractive index indicate mass changes on the surface caused by the interaction of immobilized ligand with analyte injected in solution. If molecules bind to immobilized ligand on the surface the mass increases, in case of dissociation the mass decreases. To perform the binding studies capturing anti-human IgG antibody was immobilized on the surface of a CM5 biosensor chip using amine-coupling chemistry. Flow cells were activated with a 1:1 mixture of 0.1 M N-hydroxysuccinimide and 0.1 M 3-(N,N-dimethylamino)propyl-N-ethylcarbodiimide at a flow rate of 5 μl/min. […] A reference control flow cell was treated in the same way but with vehicle buffers only instead of the capturing antibody. Surfaces were blocked with an injection of 1 M ethanolamine/HCl pH 8.5. To compare the binding of the humanized protein variants with that of the murine <Dig> IgG from the original hybridoma 19-11, capturing anti-mouse IgG antibody was immobilized on the surface of a CM5 biosensor chip in the same fashion as described above for the anti-human IgG antibody. To evaluate the functionality of the recombinant <Dig> derivatives, binding of the recombinant hu<Dig> modules, incl. (i) humanized IgG, (ii) fusion proteins harboring hu<Dig> scFv or (iii) disulfide-stabilized scFvs was assayed with different digoxygenated antigens The resulting binding affinities were compared to the binding of the murine ‘wildtype’ DIG-IgG from which the recombinant humanized modules were derived. […]

Eg5-siRNA-DIG = test: SPR (Biacore) binding to mono-digoxygenated siRNA; details: 25° C.
Experimental: as §2, §3, §4

DIG-Myoglobin = test: SPR binding to mono-digoxygenated protein DIG-myoglobin; details: analyte DIG-Myoglobin; replicate lines; listed as <DIG>hu2
Experimental: For that, binding properties of the recombinant <Dig> derivatives were analyzed by surface plasmon resonance (SPR) technology using a Biacore T100 or Biacore 3000 instrument (GE Healthcare Bio-Sciences AB, Uppsala). This system is well established for the study of molecule interactions. It allows a continuous real-time monitoring of ligand/analyte bindings and thus the determination of association rate constants (ka), dissociation rate constants (kd), and equilibrium constants (KD) in various assay settings. SPR-technology is based on the measurement of the refractive index close to the surface of a gold coated biosensor chip. Changes in the refractive index indicate mass changes on the surface caused by the interaction of immobilized ligand with analyte injected in solution. If molecules bind to immobilized ligand on the surface the mass increases, in case of dissociation the mass decreases. To perform the binding studies capturing anti-human IgG antibody was immobilized on the surface of a CM5 biosensor chip using amine-coupling chemistry. Flow cells were activated with a 1:1 mixture of 0.1 M N-hydroxysuccinimide and 0.1 M 3-(N,N-dimethylamino)propyl-N-ethylcarbodiimide at a flow rate of 5 μl/min. […] A reference control flow cell was treated in the same way but with vehicle buffers only instead of the capturing antibody. Surfaces were blocked with an injection of 1 M ethanolamine/HCl pH 8.5. To compare the binding of the humanized protein variants with that of the murine <Dig> IgG from the original hybridoma 19-11, capturing anti-mouse IgG antibody was immobilized on the surface of a CM5 biosensor chip in the same fashion as described above for the anti-human IgG antibody. To evaluate the functionality of the recombinant <Dig> derivatives, binding of the recombinant hu<Dig> modules, incl. (i) humanized IgG, (ii) fusion proteins harboring hu<Dig> scFv or (iii) disulfide-stabilized scFvs was assayed with different digoxygenated antigens The resulting binding affinities were compared to the binding of the murine ‘wildtype’ DIG-IgG from which the recombinant humanized modules were derived.
Another SPR study was performed in which the binding affinity of <DIG>-hu2, IGF1R-DIG and <DIG> M-19-11 was compared in terms of binding to the mono-digoxygenated protein DIG-myoglobin.

With `CCN1c2ccc(S(=O)(=O)O)cc2C(C)(C)C1/C=C/C=C/C=C1\N(CCCCCC(=O)NCCNC(=O)CO[C@H]2CC[C@@]3(C)[C@H](CC[C@@H]4[C@@H]3C[C@@H](O)[C@]3(C)[C@@H](C5=CC(=O)OC5)CC[C@]43O)C2)c2ccc(S(=O)(=O)O)cc2C1(C)C` (stereo partly drawn) [Dig-Cy5] the “binding to Raji or Ramos cells (FACS)” value [1] was “hardly any binding”, the “tumor specific fluorescence (NIRF) without antibody” value [2] was “no tumor specific fluorescence” and the “Emission wavelength (max.)” value [3] was “at 670 nm”. For the same molecule, the Excitation wavelength [3] was 575-605 nm.

In the case of `COc1cccc2c1C(=O)c1c(O)c3c(c(O)c1C2=O)C[C@@](O)(C(=O)CO)C[C@@H]3O[C@H]1C[C@H](N)[C@H](O)[C@H](C)O1` [doxorubicin, Doxorubicin], the IC50 (H322M cells) is reported as 25000 nM, the IC50 (KPL-4 cells) is reported as 2600 nM and the IC50 (MDA-MB-468 cells) is reported as 17000 nM.

B1: humanized DIG-IgG: recombinant humanized anti-digoxigenin IgG; Seq. ID. NO. 3-6 (antibody, V domains shown)
VH: QVQLVESGGGLVKPGGSLRLSCAASGFTFSDYAMSWIRQAPGKGLEWVSSINIGATYIYYADSVKGRFTISRDNAKNSLYLQMNSLRAEDTAVYYCARPGSPYEYDKAYYSMAYWGQGTTVTVSS
VL: DIQMTQSPSSLSASVGDRVTITCRASQDIKNYLNWYQQKPGKAPKLLIYYSSTLLSGVPSRFSGSGSGTDFTLTISSLQPEDFATYYCQQSITLPPTFGGGTKVEIKR
notes: recombinant humanized anti-digoxigenin IgG; ID; NO; 3-6
For B1, the Kd [4] was 12 nM, the Kd (Eg5-siRNA-(2×)DIG) was 0.008 nM and the Kd (DIG-siRNA2349) was 14.5 nM and 15.6 nM. The ka (DIG-siRNA2349) was 645000 M⁻¹ s⁻¹ and 628000 M⁻¹ s⁻¹, the kd (DIG-siRNA2349) was 0.00937 s⁻¹ and 0.0098 s⁻¹ and the Kd (Eg5-siRNA-DIG) was 12 nM. The ka (DIG-Myoglobin) was 620000 M⁻¹ s⁻¹ and 749000 M⁻¹ s⁻¹ and the kd (DIG-Myoglobin) was 0.00982 s⁻¹ and 0.00881 s⁻¹.

Source: US9050375B2, “Bi-specific digoxigenin binding antibodies” (priority 2009, dated 2015)
